Assay results taken from paper PMC5362816.

What was measured:
CaM-agarose (Sigma) = CaM-agarose (Sigma) (UniProt P62157); test: pull-down; CaM-agarose (Sigma) incubated with HEK293 lysate expressing a V5-His-tagged TRP channel; 20 mM Tris-HCl pH 7.4, 150 mM NaCl, 1% NP-40, 4 °C; 1 mM Ca2+ (Fig. 2A) or 2 mM Ca2+ (Fig. 2B); blot with anti-V5
[1] = biological target: HA-tagged CaM3 mutant (rat) (UniProt P0DP29); test: co-IP; HA-CaM or mutants co-expressed with TRPA1-V5 in HEK293; IP with anti-HA.11 and Protein A/G PLUS-Agarose in 2 mM Ca2+; blot with anti-V5; band intensity by ImageJ, normalized by total TRPA1
[2] = biological target: HA-tagged CaM4 mutant (rat) (UniProt P0DP29); test: as above
[3] = biological target: HA-tagged CaM12 mutant (rat) (UniProt P0DP29); test: as above

Sequence of TRPA1-V5-His (×6) (Q8BLA8 whole entry): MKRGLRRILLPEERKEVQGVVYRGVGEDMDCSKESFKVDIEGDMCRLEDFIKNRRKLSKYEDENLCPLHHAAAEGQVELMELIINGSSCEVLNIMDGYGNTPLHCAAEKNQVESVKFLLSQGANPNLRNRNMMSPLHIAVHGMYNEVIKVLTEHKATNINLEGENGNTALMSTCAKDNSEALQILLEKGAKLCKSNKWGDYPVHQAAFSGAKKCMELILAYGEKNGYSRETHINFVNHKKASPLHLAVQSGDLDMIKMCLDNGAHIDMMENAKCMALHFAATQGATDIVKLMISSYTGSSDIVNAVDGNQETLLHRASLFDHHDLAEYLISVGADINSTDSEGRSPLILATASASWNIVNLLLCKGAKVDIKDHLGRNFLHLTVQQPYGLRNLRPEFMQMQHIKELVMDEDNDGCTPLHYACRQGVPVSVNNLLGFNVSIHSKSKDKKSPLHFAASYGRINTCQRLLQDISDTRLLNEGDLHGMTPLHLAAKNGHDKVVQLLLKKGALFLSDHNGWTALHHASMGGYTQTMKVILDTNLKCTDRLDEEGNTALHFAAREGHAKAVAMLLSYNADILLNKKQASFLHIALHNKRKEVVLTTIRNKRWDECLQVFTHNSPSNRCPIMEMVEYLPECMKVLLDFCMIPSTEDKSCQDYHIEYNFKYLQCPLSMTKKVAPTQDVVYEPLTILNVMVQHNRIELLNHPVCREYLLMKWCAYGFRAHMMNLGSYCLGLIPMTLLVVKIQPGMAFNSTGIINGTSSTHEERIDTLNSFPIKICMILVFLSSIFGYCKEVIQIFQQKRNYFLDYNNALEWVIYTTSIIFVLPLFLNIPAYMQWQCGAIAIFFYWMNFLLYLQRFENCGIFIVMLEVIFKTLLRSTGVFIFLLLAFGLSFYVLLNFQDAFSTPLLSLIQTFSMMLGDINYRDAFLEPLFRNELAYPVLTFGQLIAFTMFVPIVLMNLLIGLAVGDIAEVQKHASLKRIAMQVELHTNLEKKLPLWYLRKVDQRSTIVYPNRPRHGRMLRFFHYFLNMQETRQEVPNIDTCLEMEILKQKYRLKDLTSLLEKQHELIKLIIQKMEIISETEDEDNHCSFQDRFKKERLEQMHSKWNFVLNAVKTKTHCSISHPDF

Row | relative binding to CaM (normalized by total input) (CaM-agarose (Sigma)) | percent reduction in TRPA1-CaM binding against wild-type CaM [1] [%] | percent reduction in TRPA1-CaM binding against wild-type CaM [2] [%] | percent reduction in TRPA1-CaM binding against wild-type CaM [3] [%] | Substance
1 | 0.2 |  |  |  | TRPV3 (V5-His tagged) (natural protein)
2 |  | 60 | 87 | 40 | TRPA1-V5-His (×6) (from UniProt Q8BLA8 1-1125) (natural protein)
